Source: patent US20110300138A1 (published 2011)
Where two headings read alike, the source gives them in different places.

What was measured:
[1] = biological target: TSHR with His105 mutated to Ala (expressed in CHO cells) (human) (UniProt P16473); experiment: cell-based or functional assay
[2] = biological target: wild type TSHR expressed in CHO cells (human) (UniProt P16473); experiment: cell-based or functional assay
[3] = biological target: TSHR with Asp276 mutated to Ala, expressed in CHO cells (human) (UniProt P16473); experiment: cell-based or functional assay
[4] = biological target: TSHR with Asp43 mutated to Ala, expressed in CHO cells (human) (UniProt P16473); experiment: cell-based or functional assay
[5] = biological target: TSHR with Arg255 mutated to Asp expressed in CHO cells (human) (UniProt P16473); experiment: cell-based or functional assay
[6] = biological target: wild type TSHR expressed in CHO cells (human) (UniProt P16473); experiment: cell-based or functional assay; remark: listed apart in the source
[7] = biological target: full length wild type human TSHR (human) (UniProt P16473); experiment: TSHR260-AP bridge ELISA, wild type TSHR on wells; IgG at 0.005 µg/mL in HBD
[8] = biological target: human TSH receptor (full length) coated on ELISA plate wells (human) (UniProt P16473); experiment: TSH-biotin binding inhibition ELISA, TSHR coated wells; 0.01 µg/mL in assay buffer + 100 µg/mL 5B3 IgG
[9] = biological target: full length human TSHR with mutation Arg255 Asp (human) (UniProt P16473); experiment: TSHR260-AP bridge ELISA, Arg255 Asp TSHR on wells; IgG at 0.05 µg/mL in HBD
[10] = biological target: full length wild type human TSHR (human) (UniProt P16473); experiment: TSHR260-AP bridge ELISA, wild type TSHR on wells; IgG at 0.05 µg/mL in HBD
[11] = biological target: full length wild type human TSHR (human) (UniProt P16473); experiment: TSHR260-AP bridge ELISA, wild type TSHR on wells; IgG at 0.01 µg/mL in HBD

Chain of M22 IgG (antibody) (VH): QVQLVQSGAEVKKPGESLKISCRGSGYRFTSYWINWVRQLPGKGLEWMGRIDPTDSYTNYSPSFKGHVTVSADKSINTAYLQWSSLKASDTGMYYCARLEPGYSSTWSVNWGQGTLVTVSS
Chain of M22 IgG (antibody) (V domain): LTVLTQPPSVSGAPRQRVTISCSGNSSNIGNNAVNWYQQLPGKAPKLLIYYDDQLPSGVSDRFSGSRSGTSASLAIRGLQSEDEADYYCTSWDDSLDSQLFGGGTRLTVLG

TSH (ligand)
% inhibition of TSH stimulation; TSH (2), run at the end of assay [1]: 11%
Cyclic AMP produced; TSH 3 ng/mL alone [1]: 65.9 pmol/mL
Cyclic AMP produced; TSH (2) 3 ng/mL, run at the end of assay [1]: 58.5 pmol/mL
Mutated/wild type (%) of cyclic AMP produced; TSH 3 ng/mL alone [1]: 70%
Mutated/wild type (%) of cyclic AMP produced; TSH (2) 3 ng/mL, run at the end of assay [1]: 50%
% inhibition of TSH stimulation; TSH (2), run at the end of assay [2]: 0%
Cyclic AMP produced; TSH 3 ng/mL alone [2]: 93.6 pmol/mL
Cyclic AMP produced; TSH (2) 3 ng/mL, run at the end of assay [2]: 117 pmol/mL
Cyclic AMP produced (pmol/mL), TSH 0.01 ng/mL [3]: 14.3 pmol/mL
Cyclic AMP produced (pmol/mL), TSH 0.03 ng/mL [3]: 17.6 pmol/mL
Cyclic AMP produced (pmol/mL), TSH 0.1 ng/mL [3]: 21.7 pmol/mL
Cyclic AMP produced (pmol/mL), TSH 0.3 ng/mL [3]: 45.6 pmol/mL
Cyclic AMP produced (pmol/mL), TSH 1 ng/mL [3]: 68.3 pmol/mL
Cyclic AMP produced (pmol/mL), TSH 3 ng/mL [3]: 76 pmol/mL
Experiment 1; % inhibition of TSH stimulation; TSH (2) 3 ng/mL, run at the end of assay [3]: 6%
Experiment 1; Mutated/wild type (%) of cyclic AMP produced; TSH 3 ng/mL [3]: 91%
Experiment 1; Mutated/wild type (%) of cyclic AMP produced; TSH (2) 3 ng/mL, run at the end of assay [3]: 90%
Experiment 1; cyclic AMP produced; TSH 3 ng/mL [3]: 71.2 pmol/mL
Experiment 1; cyclic AMP produced; TSH (2) 3 ng/mL, run at the end of assay [3]: 67 pmol/mL
Experiment 2; % inhibition of TSH stimulation; TSH (2) 3 ng/mL, run at the end of assay [3]: 18%
Experiment 2; Mutated/wild type (%) of cyclic AMP produced; TSH 3 ng/mL [3]: 78%
Experiment 2; Mutated/wild type (%) of cyclic AMP produced; TSH (2) 3 ng/mL, run at the end of assay [3]: 66%
Experiment 2; cyclic AMP produced; TSH 3 ng/mL [3]: 74.8 pmol/mL
Experiment 2; cyclic AMP produced; TSH (2) 3 ng/mL, run at the end of assay [3]: 61.2 pmol/mL
Mutated/Wild type (%), TSH 0.01 ng/mL [3]: 583%
Mutated/Wild type (%), TSH 0.03 ng/mL [3]: 369%
Mutated/Wild type (%), TSH 0.1 ng/mL [3]: 134%
Mutated/Wild type (%), TSH 0.3 ng/mL [3]: 103%
Mutated/Wild type (%), TSH 1 ng/mL [3]: 88%
Mutated/Wild type (%), TSH 3 ng/mL [3]: 80%
% inhibition of TSH stimulation, TSH (2) run at the end of assay, mutated TSHR [4]: 0%
Cyclic AMP produced (pmol/mL), TSH (2) 3 ng/mL run at the end of assay, mutated TSHR [4]: 60.3 pmol/mL
Mutated/Wild type (%) of cyclic AMP produced, TSH 0.01 ng/mL [4]: 100%
Mutated/Wild type (%) of cyclic AMP produced, TSH 0.03 ng/mL [4]: 113%
Mutated/Wild type (%) of cyclic AMP produced, TSH 0.1 ng/mL [4]: 119%
Mutated/Wild type (%) of cyclic AMP produced, TSH 0.3 ng/mL [4]: 86%
Mutated/Wild type (%) of cyclic AMP produced, TSH 1 ng/mL [4]: 86%
Mutated/wild type (%) of cyclic AMP produced; TSH 3 ng/mL [4]: 88%
Mutated/wild type (%), TSH (2) 3 ng/mL run at the end of assay [4]: 65%
% inhibition of TSH stimulation; TSH (2) control [5]: 13%
Cyclic AMP produced; TSH 3 ng/mL alone [5]: 57.8 pmol/mL
Cyclic AMP produced; TSH (2) [5]: 50.2 pmol/mL
Mutated/wild type (%) of cyclic AMP produced; TSH 3 ng/mL alone [5]: 87%
Mutated/wild type (%) of cyclic AMP produced; TSH (2) [5]: 77%
% inhibition of TSH stimulation; TSH (2) control [6]: 2%
Cyclic AMP produced; TSH 3 ng/mL alone [6]: 66.5 pmol/mL
Cyclic AMP produced; TSH (2) [6]: 64.8 pmol/mL

M22 IgG (antibody)
Mean absorbance at 405 nm (absorbance at 405 nm) [7]: 0.032
% inhibition of TSH-biotin binding [8]: 12.9%
Mean absorbance at 405 nm (absorbance at 405 nm) [9]: 0.017
Mean absorbance at 405 nm (absorbance at 405 nm) [10]: 0.332
Mean absorbance at 405 nm (absorbance at 405 nm) [11]: 0.064
